We go through 3 molecules from patent publication US20190010237A1 (AbbVie / Abbott, published 2019).

The target in assay [1] is T1, PRLR (prolactin receptor, as named in the kinetics and crystallography paragraph) (UniProt P16471 25-234, limits assumed).
T1 construct: The paragraph says only 'PRLR'
T1 sequence (looked up): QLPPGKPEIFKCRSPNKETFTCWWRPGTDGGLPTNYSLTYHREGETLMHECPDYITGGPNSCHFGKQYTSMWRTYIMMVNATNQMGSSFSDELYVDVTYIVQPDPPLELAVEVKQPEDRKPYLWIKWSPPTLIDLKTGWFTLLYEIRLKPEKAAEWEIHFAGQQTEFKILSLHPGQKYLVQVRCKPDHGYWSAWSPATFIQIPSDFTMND
Put plainly: kinetic measurement, method not named.

Assay [2] has as its target T2, Human PRLR expressed on HEK-293 cells (human, UniProt P16471 25-622).
T2 construct: also called PRLR-expressing HEK-293 cells; HEK293/Human PRLR
T2 sequence: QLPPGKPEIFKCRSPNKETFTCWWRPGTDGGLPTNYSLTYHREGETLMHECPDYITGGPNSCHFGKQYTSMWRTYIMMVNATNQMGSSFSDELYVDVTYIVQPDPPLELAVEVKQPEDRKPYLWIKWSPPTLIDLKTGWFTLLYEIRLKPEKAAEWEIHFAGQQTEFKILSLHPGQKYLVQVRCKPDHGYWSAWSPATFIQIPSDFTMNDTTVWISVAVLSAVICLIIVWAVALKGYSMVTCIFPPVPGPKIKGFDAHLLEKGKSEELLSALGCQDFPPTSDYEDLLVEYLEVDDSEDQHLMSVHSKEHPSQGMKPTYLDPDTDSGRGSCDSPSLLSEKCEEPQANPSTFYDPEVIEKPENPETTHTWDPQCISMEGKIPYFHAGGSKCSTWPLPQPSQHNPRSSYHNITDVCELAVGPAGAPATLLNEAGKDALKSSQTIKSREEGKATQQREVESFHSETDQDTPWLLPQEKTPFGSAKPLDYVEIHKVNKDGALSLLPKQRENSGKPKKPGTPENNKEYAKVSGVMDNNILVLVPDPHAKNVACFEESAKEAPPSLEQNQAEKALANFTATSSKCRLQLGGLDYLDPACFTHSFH
Put plainly: FACS titration on PRLR-expressing HEK-293 cells (293hPRLR), MFI against Ab (nM).

B1: anti-PRLR antibody LFA-102 (Novartis) (antibody, V domains shown)
VH: EVQLVESGGGLVQPGGSLRLSCAVSGFTFSSYGMSWVRQAPGKRLEWVATVSSGGTYTYYPDSVKGRFTISRDNSKNTLYLQMNSLRAEDTAMYYCARHRGNYYATYYYAMDYWGQGTLVTVSS
VL: DIVLTQSPDSLAVSLGERATINCKASKSVSTSGYTYMHWYQQKPGQPPKLLIYLASNRESGVPDRFSGSGSGTDFTLTISPVQAEDVATYYCQHSGELPPSFGQGTKLEIKR
In assay [1], B1 yielded a Kd of 1.3 nM and a koff of 0.0011 s⁻¹.

B2: h16e anti-PRLR antibody (antibody, human IgG1, kappa)
heavy: not shown
light: DIQMTQSPSSLSASVGDRVTITCRASENIYSYLAWYQQKPGKPPKLLVYNAKTLAEGVPSRFSGSGSGTDFTLTISSLQPEDFATYYCQHHYATPFTFGQGTKLEIKRTVAAPSVFIFPPSDEQLKSGTASVVCLLNNFYPREAKVQWKVDNALQSGNSQESVTEQDSKDSTYSLSSTLTLSKADYEKHKVYACEVTHQGLSSPVTKSFNRGEC
In assay [2], B2 displayed an EC50 of 0.5 nM.

B3: h16f humanized anti-PRLR antibody (antibody, human IgG1, kappa)
heavy: not shown
light: DIQMTQSPSSVSASVGDRVTITCKASQYVGTAVAWYQQKPGKSPKLLIYSASNRYTGVPSRFSDSGSGTDFTLTISSLQPEDFATYFCQQYSSYPWTFGGGTKVEIKRTVAAPSVFIFPPSDEQLKSGTASVVCLLNNFYPREAKVQWKVDNALQSGNSQESVTEQDSKDSTYSLSSTLTLSKADYEKHKVYACEVTHQGLSSPVTKSFNRGEC
notes: Humanized IgG1; also called antibody h16f; parental h16f
In assay [1], B3 yielded a Kd of 0.46 nM and a koff of 0.000623 s⁻¹. The molecule also showed an EC50 in assay [2] of 0.29 nM.

What is called Kd is the concentration at which binding is half-saturated. Usually koff stands for the first-order rate constant of dissociation. Read a high koff as a short-lived complex. Usually EC50 stands for the concentration at which the effect is half-maximal. Higher therefore signals weaker potency.
